# Assay results reported in patent publication US20140274782A1, “AFFINITY REAGENTS AND METHODS FOR DETECTION, PURIFICATION, AND PROTEOMIC ANALYSIS OF METHYLATED PROTEINS” (The Board of Trustees of the Leland Stanford Junior …, priority 2013, published 2014).
# B1: RCC1 (protein, UniProt P18754 2-421, looked up)
# Regulator of chromosome …: SPKRIAKRRSPPADAIPKSKKVKVSHRSHSTEPGLVLTLGQGDVGQLGLGENVMERKKPALVSIPEDVVQAEAGGMHTVCLSKSGQVYSFGCNDEGALGRDTSVEGSEMVPGKVELQEKVVQVSAGDSHTAALTDDGRVFLWGSFRDNNGVIGLLEPMKKSMVPVQVQLDVPVVKVASGNDHLVMLTADGDLYTLGCGEQGQLGRVPELFANRGGRQGLERLLVPKCVMLKSRGSRGHVRFQDAFCGAYFTFAISHEGHVYGFGLSNYHQLGTPGTESCFIPQNLTSFKNSTKSWVGFSGGQHHTVCMDSEGKAYSLGRAEYGRLGLGEGAEEKSIPTLISRLPAVSSVACGASVGYAVTKDGRVFAWGMGTNYQLGTGQDEDAWSPVEMMGKQLENRVVLSVSSGGQHTVLLVKDKEQS
# B2: PPP1CB (protein, UniProt P62140 2-327, looked up)
# Serine/threonine-protein …: ADGELNVDSLITRLLEVRGCRPGKIVQMTEAEVRGLCIKSREIFLSQPILLELEAPLKICGDIHGQYTDLLRLFEYGGFPPEANYLFLGDYVDRGKQSLETICLLLAYKIKYPENFFLLRGNHECASINRIYGFYDECKRRFNIKLWKTFTDCFNCLPIAAIVDEKIFCCHGGLSPDLQSMEQIRRIMRPTDVPDTGLLCDLLWSDPDKDVQGWGENDRGVSFTFGADVVSKFLNRHDLDLICRAHQVVEDGYEFFAKRQLVTLFSAPNYCGEFDNAGGMMSVDETLMCSFQILKPSEKKAKYQYGGLNSGRPVTPPRTANPPKKR
# B3: SRP9 (protein, UniProt P49458 2-86, looked up)
# Signal recognition particle 9 …: PQYQTWEEFSRAAEKLYLADPMKARVVLKYRHSDGNLCVKVTDDLVCLVYKTDQAQDVKKIEKFHSQLMRLMVAKEARNVTMETE
# B4: SAFB (protein, UniProt Q15424 2-915, looked up)
# Scaffold attachment factor B1: AETLSGLGDSGAAGAAALSSASSETGTRRLSDLRVIDLRAELRKRNVDSSGNKSVLMERLKKAIEDEGGNPDEIEITSEGNKKTSKRSSKGRKPEEEGVEDNGLEENSGDGQEDVETSLENLQDIDIMDISVLDEAEIDNGSVADCVEDDDADNLQESLSDSRELVEGEMKELPEQLQEHAIEDKETINNLDTSSSDFTILQEIEEPSLEPENEKILDILGETCKSEPVKEESSELEQPFAQDTSSVGPDRKLAEEEDLFDSAHPEEGDLDLASESTAHAQSSKADSLLAVVKREPAEQPGDGERTDCEPVGLEPAVEQSSAASELAEASSEELAEAPTEAPSPEARDSKEDGRKFDFDACNEVPPAPKESSTSEGADQKMSSPEDDSDTKRLSKEEKGRSSCGRNFWVSGLSSTTRATDLKNLFSKYGKVVGAKVVTNARSPGARCYGFVTMSTAEEATKCINHLHKTELHGKMISVEKAKNEPVGKKTSDKRDSDGKKEKSSNSDRSTNLKRDDKCDRKDDAKKGDDGSGEKSKDQDDQKPGPSERSRATKSGSRGTERTVVMDKSKGVPVISVKTSGSKERASKSQDRKSASREKRSVVSFDKVKEPRKSRDSESHSRVRERSEREQRMQAQWEREERERLEIARERLAFQRQRLERERMERERLERERMHVEHERRREQERIHREREELRRQQELRYEQERRPAVRRPYDLDRRDDAYWPEAKRAALDERYHSDFNRQDRFHDFDHRDRGRYPDHSVDRREGSRSMMGEREGQHYPERHGGPERHGRDSRDGWGGYGSDKRMSEGRGLPPPPRRDWGDHGRREDDRSWQGTADGGMMDRDHKRWQGGERSMSGHSGPGHMMNRGGMSGRGSFAPGGASRGHPIPHGGMQGGFGGQSRGSRPSDARFTRRY
# B5: CNN3 (protein, UniProt Q15417 1-329, looked up)
# Calponin-3: MTHFNKGPSYGLSAEVKNKIASKYDHQAEEDLRNWIEEVTGMSIGPNFQLGLKDGIILCELINKLQPGSVKKVNESSLNWPQLENIGNFIKAIQAYGMKPHDIFEANDLFENGNMTQVQTTLVALAGLAKTKGFHTTIDIGVKYAEKQTRRFDEGKLKAGQSVIGLQMGTNKCASQAGMTAYGTRRHLYDPKMQTDKPFDQTTISLQMGTNKGASQAGMLAPGTRRDIYDQKLTLQPVDNSTISLQMGTNKVASQKGMSVYGLGRQVYDPKYCAAPTEPVIHNGSQGTGTNGSEISDSDYQAEYPDEYHGEYQDDYPRDYQYSDQGIDY
# Experiments:
# [1] = target: T1, G9a and GLP (Homo sapiens, UniProt Q96KQ7+Q9H9B1); experiment: Triple SILAC pull-down after UNC0638 treatment of 293T cells, DMSO/UNC0638 ratio of protein captured by 3×MBT; format: cell-based; design: endogenous in cells; host or cells: HEK 293T; conditions: for Relative to UNC0638 UNC Heavy / Relative to UNC0638 UNC Light: SILAC ratio DMSO/UNC0638 of protein pulled down with 3xMBT; for Relative to UNC0638 UNC Heavy: UNC0638 in heavy SILAC media; for Relative to UNC0638 UNC Light: UNC0638 in light SILAC media; for Relative to UNC0638 Average: average of UNC Light and UNC Heavy experiments;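 for all read-outs here: mass spectrometry (Q-Exactive) SILAC quantitation, DMSO/UNC0638 ratio computed after subtracting 3×MBTD355N mutant pull-down background, only proteins with at least twofold 3×MBT over mutant signal considered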
# T1 sequence (Q96KQ7 2-1210 limits assumed): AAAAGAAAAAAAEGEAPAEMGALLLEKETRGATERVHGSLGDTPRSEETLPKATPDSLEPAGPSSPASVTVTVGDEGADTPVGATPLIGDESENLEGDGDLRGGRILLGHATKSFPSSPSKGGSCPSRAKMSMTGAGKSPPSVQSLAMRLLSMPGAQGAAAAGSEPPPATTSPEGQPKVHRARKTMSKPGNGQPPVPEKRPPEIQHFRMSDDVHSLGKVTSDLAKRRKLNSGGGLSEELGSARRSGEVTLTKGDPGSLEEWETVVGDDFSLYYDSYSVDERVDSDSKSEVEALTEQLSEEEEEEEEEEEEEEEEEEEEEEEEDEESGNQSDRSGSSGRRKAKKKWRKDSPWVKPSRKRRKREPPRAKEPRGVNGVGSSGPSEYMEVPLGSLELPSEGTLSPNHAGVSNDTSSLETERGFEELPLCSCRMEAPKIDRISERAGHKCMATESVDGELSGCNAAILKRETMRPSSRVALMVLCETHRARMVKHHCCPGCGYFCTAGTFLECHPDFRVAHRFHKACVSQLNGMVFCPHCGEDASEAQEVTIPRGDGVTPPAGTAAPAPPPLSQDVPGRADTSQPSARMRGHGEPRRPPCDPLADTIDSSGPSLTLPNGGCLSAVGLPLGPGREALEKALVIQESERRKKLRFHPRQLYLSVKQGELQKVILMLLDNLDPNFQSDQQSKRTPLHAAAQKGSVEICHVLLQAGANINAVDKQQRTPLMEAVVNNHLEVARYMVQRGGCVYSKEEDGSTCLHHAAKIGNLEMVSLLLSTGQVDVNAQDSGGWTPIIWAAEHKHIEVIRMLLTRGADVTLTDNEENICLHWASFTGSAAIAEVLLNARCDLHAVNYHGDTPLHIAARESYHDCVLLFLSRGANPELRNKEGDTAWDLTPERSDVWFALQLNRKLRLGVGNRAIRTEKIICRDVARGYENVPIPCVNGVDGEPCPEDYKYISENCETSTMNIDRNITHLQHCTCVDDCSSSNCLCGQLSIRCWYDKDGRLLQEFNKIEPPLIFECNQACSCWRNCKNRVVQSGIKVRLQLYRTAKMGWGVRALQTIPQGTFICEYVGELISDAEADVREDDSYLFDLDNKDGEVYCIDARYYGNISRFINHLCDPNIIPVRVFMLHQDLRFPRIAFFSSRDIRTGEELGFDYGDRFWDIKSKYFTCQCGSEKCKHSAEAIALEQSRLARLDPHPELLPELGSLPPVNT
# T1 sequence (Q9H9B1 2-1298 limits assumed): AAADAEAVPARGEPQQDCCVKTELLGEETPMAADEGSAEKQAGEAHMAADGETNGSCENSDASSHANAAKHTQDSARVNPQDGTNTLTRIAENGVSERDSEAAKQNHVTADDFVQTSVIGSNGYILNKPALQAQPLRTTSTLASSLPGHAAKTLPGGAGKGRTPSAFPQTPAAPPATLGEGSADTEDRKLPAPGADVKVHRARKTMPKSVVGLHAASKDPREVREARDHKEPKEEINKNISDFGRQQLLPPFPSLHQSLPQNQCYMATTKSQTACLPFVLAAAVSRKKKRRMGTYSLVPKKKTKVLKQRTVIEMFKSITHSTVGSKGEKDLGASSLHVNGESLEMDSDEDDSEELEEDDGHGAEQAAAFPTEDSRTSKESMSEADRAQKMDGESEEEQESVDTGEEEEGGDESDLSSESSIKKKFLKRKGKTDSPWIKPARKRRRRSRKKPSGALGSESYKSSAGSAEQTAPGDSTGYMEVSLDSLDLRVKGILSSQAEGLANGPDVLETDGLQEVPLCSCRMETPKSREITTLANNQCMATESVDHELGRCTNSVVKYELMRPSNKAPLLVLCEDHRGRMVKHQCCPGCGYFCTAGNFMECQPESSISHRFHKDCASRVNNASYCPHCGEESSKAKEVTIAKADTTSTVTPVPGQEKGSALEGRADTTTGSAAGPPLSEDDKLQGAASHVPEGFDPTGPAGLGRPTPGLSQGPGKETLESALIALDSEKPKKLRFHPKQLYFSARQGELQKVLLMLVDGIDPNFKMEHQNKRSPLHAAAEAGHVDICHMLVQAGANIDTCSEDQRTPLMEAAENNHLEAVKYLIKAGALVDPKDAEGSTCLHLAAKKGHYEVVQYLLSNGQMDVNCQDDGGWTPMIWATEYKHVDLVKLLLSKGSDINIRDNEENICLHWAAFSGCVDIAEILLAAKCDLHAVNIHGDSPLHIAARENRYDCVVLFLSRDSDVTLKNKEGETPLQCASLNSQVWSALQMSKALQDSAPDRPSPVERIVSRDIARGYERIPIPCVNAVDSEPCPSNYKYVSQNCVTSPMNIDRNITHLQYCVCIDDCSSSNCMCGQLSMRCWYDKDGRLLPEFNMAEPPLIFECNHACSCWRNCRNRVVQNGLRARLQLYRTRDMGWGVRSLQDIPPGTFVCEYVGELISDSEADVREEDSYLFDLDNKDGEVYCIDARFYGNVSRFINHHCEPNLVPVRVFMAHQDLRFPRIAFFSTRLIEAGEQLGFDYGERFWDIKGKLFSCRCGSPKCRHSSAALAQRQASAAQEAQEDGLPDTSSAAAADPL
# [2] = test system: 3×MBT domain of L3MBTL1; experiment: Triple SILAC pull-down, 3xMBT/3xMBTD355N ratio (cytoplasmic, nuclear and chromatin fractions of 293T cells); format: binding, human; conditions: SILAC ratio, pull-down 3xMBT vs 3xMBTD355N; for 3xMBT/D355N UNC Heavy: experiment with UNC0638 in heavy SILAC media; for 3xMBT/D355N UNC Light: experiment with UNC0638 in light SILAC media;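 for all read-outs here: proteins quantified with MaxQuant, requiring at least two unique peptides and quantification in both label directions, normalized to the mean of proteins from a digested loading control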
Molecule,Relative to UNC0638 UNC Heavy [1] [log base 2],Relative to UNC0638 UNC Light [1] [log base 2],Relative to UNC0638 Average [1] [log base 2],3xMBT/D355N UNC Heavy [2] [log base 2],3xMBT/D355N UNC Light [2] [log base 2]
B1,0.18,0.29,0.24,2.15,2.25
B2,0.28,0.18,0.23,2.35,2.55
B3,0.46,0.01,0.23,1.88,1.52
B4,0.11,0.35,0.23,2.38,2.76
B5,0.61,−0.15,0.23,2.36,2.35
